We go through one sequence from patent publication US20150067898.

For the series, the system named is ssAPC14.2 TALEN right monomer (Xanthomonas TALE-FokI (artificial)?). Briefly: cell_activity. As to conditions: pair with p5; repeat 50%; pig fibroblasts.

Consider “ACAGAAATTCTGGGT (double strand) [APC14.2 right half-site]”, for which the activity amounted to 48 % HDR day 3.
